Experimental data published in patent publication US20130281360A1.
Read-outs that look alike come from different tables or passages of the source.

How the values were obtained:
[1] = target: detergent-solubilized full-length His-tagged E. coli SPase, P84S variant (Escherichia coli) (UniProt P00803); assay: steady-state binding by increase of arylomycin fluorescence, detergent-solubilized full-length SPase
[2] = target: detergent-solubilized full-length His-tagged E. coli SPase, wild type (Escherichia coli) (UniProt P00803); assay: as above
[3] = target: E. coli MG1655 SPase (LepB) with Lys at residue 84, in the strain (Escherichia coli K-12 MG1655) (UniProt P00803); assay: cell-based or functional assay
[4] = target: E. coli MG1655 SPase (LepB) with Trp at residue 84, in the strain (Escherichia coli K-12 MG1655) (UniProt P00803); assay: cell-based or functional assay
[5] = target: E. coli MG1655 SPase (LepB) with Thr at residue 84, in the strain (Escherichia coli K-12 MG1655) (UniProt P00803); assay: cell-based or functional assay
[6] = target: E. coli MG1655 SPase (LepB), wild type, in the strain (Escherichia coli K-12 MG1655) (UniProt P00803); assay: cell-based or functional assay
[7] = target: E. coli MG1655 SPase (LepB) with Leu at residue 84, in the strain (Escherichia coli K-12 MG1655) (UniProt P00803); assay: cell-based or functional assay
[8] = target: E. coli MG1655 SPase (LepB) with Asp at residue 84, in the strain (Escherichia coli K-12 MG1655) (UniProt P00803); assay: cell-based or functional assay
[9] = target: E. coli MG1655 SPase (LepB) with Met at residue 84, in the strain (Escherichia coli K-12 MG1655) (UniProt P00803); assay: cell-based or functional assay
[10] = target: E. coli MG1655 SPase (LepB) with Phe at residue 84, in the strain (Escherichia coli K-12 MG1655) (UniProt P00803); assay: cell-based or functional assay
[11] = target: S. epidermidis RP62A signal peptidase IB (SpsIB), wild type, in the strain (Staphylococcus epidermidis RP62A); assay: cell-based or functional assay
[12] = target: E. coli SPase (LepB) P84S, in strain PAS0232 (Escherichia coli K-12 MG1655) (UniProt P00803); assay: cell-based or functional assay
[13] = target: E. coli MG1655 SPase (LepB) with Tyr at residue 84, in the strain (Escherichia coli K-12 MG1655) (UniProt P00803); assay: cell-based or functional assay
[14] = target: S. aureus SPase (SpsB) P29S, in strain PAS8001 (Staphylococcus aureus NCTC 8325); assay: cell-based or functional assay
[15] = target: P. aeruginosa PAO1 SPase (LepB) P84L, in the strain lepB(P84L) P. aeruginosa PAO1 (Pseudomonas aeruginosa PAO1) (UniProt Q9I5G7); assay: cell-based or functional assay
[16] = target: S. epidermidis SpsIB S31P, in strain PAS9002 (Staphylococcus epidermidis RP62A); assay: cell-based or functional assay
[17] = target: E. coli MG1655 SPase (LepB) with His at residue 84, in the strain (Escherichia coli K-12 MG1655) (UniProt P00803); assay: cell-based or functional assay
[18] = target: S. aureus NCTC 8325 SPase (SpsB), wild type, in the strain (Staphylococcus aureus NCTC 8325); assay: cell-based or functional assay
[19] = target: E. coli MG1655 SPase (LepB) with Arg at residue 84, in the strain (Escherichia coli K-12 MG1655) (UniProt P00803); assay: cell-based or functional assay
[20] = target: E. coli MG1655 SPase (LepB) with Cys at residue 84, in the strain (Escherichia coli K-12 MG1655) (UniProt P00803); assay: cell-based or functional assay
[21] = target: E. coli MG1655 SPase (LepB) with Gly at residue 84, in the strain (Escherichia coli K-12 MG1655) (UniProt P00803); assay: cell-based or functional assay
[22] = target: E. coli MG1655 SPase (LepB) with Gln at residue 84, in the strain (Escherichia coli K-12 MG1655) (UniProt P00803); assay: cell-based or functional assay
[23] = target: E. coli MG1655 SPase (LepB) with Val at residue 84, in the strain (Escherichia coli K-12 MG1655) (UniProt P00803); assay: cell-based or functional assay
[24] = target: E. coli MG1655 SPase (LepB) with Asn at residue 84, in the strain (Escherichia coli K-12 MG1655) (UniProt P00803); assay: cell-based or functional assay
[25] = target: P. aeruginosa SPase (LepB) P84S, in strain PAS2006 (Pseudomonas aeruginosa PAO1) (UniProt Q9I5G7); assay: cell-based or functional assay
[26] = target: E. coli MG1655 SPase (LepB) with Ala at residue 84, in the strain (Escherichia coli K-12 MG1655) (UniProt P00803); assay: cell-based or functional assay
[27] = target: E. coli MG1655 SPase (LepB) with Glu at residue 84, in the strain (Escherichia coli K-12 MG1655) (UniProt P00803); assay: cell-based or functional assay
[28] = target: P. aeruginosa PAO1 SPase (LepB), wild type, in the strain (Pseudomonas aeruginosa PAO1) (UniProt Q9I5G7); assay: cell-based or functional assay
[29] = target: E. coli MG1655 SPase (LepB) with Ile at residue 84, in the strain (Escherichia coli K-12 MG1655) (UniProt P00803); assay: cell-based or functional assay
[30] = target: S. epidermidis SpsIB S29P, in strain PAS9001 (Staphylococcus epidermidis RP62A); assay: cell-based or functional assay
[31] = target: E. coli MG1655 SPase (LepB) with Phe at residue 84, in the strain (Escherichia coli K-12 MG1655) (UniProt P00803); assay: cell-based or functional assay; remark: listed apart in the source
[32] = target: E. coli MG1655 SPase (LepB) with His at residue 84, in the strain (Escherichia coli K-12 MG1655) (UniProt P00803); assay: cell-based or functional assay; remark: listed apart in the source
[33] = target: full-length His-tagged S. aureus SPase (SpsB), P29S mutant (Staphylococcus aureus NCTC 8325); assay: equilibrium binding by the increase of arylomycin fluorescence (ex 320 nm, em 410 nm) with full-length His-tagged S. aureus SPase
[34] = target: full-length His-tagged S. aureus SPase (SpsB), wild type (Staphylococcus aureus NCTC 8325); assay: as above
[35] = target: full-length His-tagged S. aureus SPase (SpsB), P29S mutant (Staphylococcus aureus NCTC 8325); assay: steady-state binding by increase of arylomycin fluorescence, full-length SPase, buffer with 10% glycerol
[36] = target: full-length His-tagged S. aureus SPase (SpsB), wild type (Staphylococcus aureus NCTC 8325); assay: as above
[37] = target: P84S variant of the truncated E. coli SPase (Δ2-75) (Escherichia coli K-12 MG1655) (UniProt P00803); assay: steady state binding by the increase of arylomycin fluorescence (ex 320 nm, em 410 nm) with soluble N-terminally truncated E. coli SPase
[38] = target: truncated wild type E. coli SPase that lacks the N-terminal membrane helices (Δ2-75) (Escherichia coli K-12 MG1655) (UniProt P00803); assay: as above
[39] = target: P84S variant of the truncated E. coli SPase (Δ2-75) (Escherichia coli K-12 MG1655) (UniProt P00803); assay: steady-state binding by increase of arylomycin fluorescence (ex 320 nm, em 410 nm), SPase in n-octyl-β-glucopyranoside micelles
[40] = target: truncated wild type E. coli SPase that lacks the N-terminal membrane helices (Δ2-75) (Escherichia coli K-12 MG1655) (UniProt P00803); assay: as above
[41] = target: detergent-solubilized full-length His-tagged E. coli SPase, P84S variant (Escherichia coli) (UniProt P00803); assay: equilibrium binding by the increase of arylomycin fluorescence (ex 320 nm, em 410 nm) with detergent-solubilized full-length E. coli SPase
[42] = target: detergent-solubilized full-length His-tagged E. coli SPase, wild type (Escherichia coli) (UniProt P00803); assay: as above

Substance: arylomycin C16 (peptide)
- Kd [1]: 5.7 nM
- Kd [2]: 60 nM
- MIC of arylomycin C16 for the E. coli strain with this residue 84 [3]: < 16 µg/mL
- MIC of arylomycin C16 for the E. coli strain with this residue 84 [4]: < 16 µg/mL
- MIC of arylomycin C16 for the E. coli strain with this residue 84 [5]: < 16 µg/mL
- MIC (µg/mL) of arylomycin C16 for the strain [6]: > 128 µg/mL
- MIC (µg/ml) of arylomycin C16 for the resistant E. coli strain [6]: > 64 µg/mL
- MIC of arylomycin C16 for the E. coli strain with this residue 84 [6]: > 256 µg/mL
- MIC (µg/ml) of arylomycin C16 for the sensitive E. coli strain [7]: 0.5 µg/mL
- MIC of arylomycin C16 for the E. coli strain with this residue 84 [7]: < 16 µg/mL
- MIC of arylomycin C16 for the E. coli strain with this residue 84 [8]: < 16 µg/mL
- MIC of arylomycin C16 for the E. coli strain with this residue 84 [9]: < 16 µg/mL
- MIC of arylomycin C16 for the E. coli strain with this residue 84 [10]: < 16 µg/mL
- MIC (µg/mL) of arylomycin C16 for the strain [11]: 0.25 µg/mL
- MIC (µg/ml) of arylomycin C16 for the sensitive S. epidermidis strain [11]: 0.5 µg/mL
- MIC (µg/mL) of arylomycin C16 for the strain [12]: 2 µg/mL
- MIC of arylomycin C16 for the E. coli strain with this residue 84 [12]: < 16 µg/mL
- MIC of arylomycin C16 for the E. coli strain with this residue 84 [13]: < 16 µg/mL
- MIC (µg/mL) of arylomycin C16 for the strain [14]: 2 µg/mL
- MIC (µg/ml) of arylomycin C16 for the sensitive S. aureus strain [14]: 2 µg/mL
- MIC (µg/ml) of arylomycin C16 for the sensitive P. aeruginosa strain [15]: 8 µg/mL
- MIC (µg/mL) of arylomycin C16 for the strain [16]: > 128 µg/mL
- fold elevation of the MIC over the wild type strain [16]: > 256 fold
- MIC of arylomycin C16 for the E. coli strain with this residue 84 [17]: < 16 µg/mL
- MIC (µg/mL) of arylomycin C16 for the strain [18]: > 128 µg/mL
- MIC (µg/ml) of arylomycin C16 for the resistant S. aureus strain [18]: > 64 µg/mL
- MIC of arylomycin C16 for the E. coli strain with this residue 84 [19]: < 16 µg/mL
- MIC of arylomycin C16 for the E. coli strain with this residue 84 [20]: < 16 µg/mL
- MIC of arylomycin C16 for the E. coli strain with this residue 84 [21]: < 16 µg/mL
- MIC of arylomycin C16 for the E. coli strain with this residue 84 [22]: < 16 µg/mL
- MIC of arylomycin C16 for the E. coli strain with this residue 84 [23]: < 16 µg/mL
- MIC of arylomycin C16 for the E. coli strain with this residue 84 [24]: < 16 µg/mL
- MIC (µg/mL) of arylomycin C16 for the strain [25]: 8 µg/mL
- MIC of arylomycin C16 for the E. coli strain with this residue 84 [26]: < 16 µg/mL
- MIC of arylomycin C16 for the E. coli strain with this residue 84 [27]: < 16 µg/mL
- MIC (µg/mL) of arylomycin C16 for the strain [28]: > 128 µg/mL
- MIC (µg/ml) of arylomycin C16 for the resistant P. aeruginosa strain [28]: > 64 µg/mL
- MIC of arylomycin C16 for the E. coli strain with this residue 84 [29]: < 16 µg/mL
- MIC (µg/mL) of arylomycin C16 for the strain [30]: 8 µg/mL
- MIC (µg/ml) of arylomycin C16 for the resistant S. epidermidis strain [30]: 8 µg/mL
- fold elevation of the MIC over the wild type strain [30]: 32 fold
- MIC of arylomycin C16 for the E. coli strain with this residue 84 [31]: 2 µg/mL
- MIC of arylomycin C16 for the E. coli strain with this residue 84 [32]: 4 µg/mL
- EC50 (read off the curve) [33]: 200 nM
- EC50 (read off the curve) [34]: 2000 nM
- Kd [35]: 130 nM
- Kd [36]: 1280 nM
- EC50 (read off the curve) [37]: 100 nM
- EC50 (read off the curve) [38]: 2000 nM
- Kd [39]: 39 nM
- Kd [40]: 979 nM
- EC50 (read off the curve) [41]: 10 nM
- Kd [41]: 5.73 nM
- EC50 (read off the curve) [42]: 100 nM
